Experimental findings from the supplement of paper PMC12042874 are described below.

± gives the uncertainty stated by the source.

The series can be described thus: amyloid nucleation score (Sup35N fusion, yeast selection) (log enrichment); library NNK2; higher = more nucleation; inactive = no reads after selection. In outline:
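The nucleation score, computed with DiMSum, is the log enrichment of output over input reads, centred on the mode score of non-aggregating sequences. Sequences with under 100 input reads were dropped. Reads were generated by Illumina sequencing of plasmid inserts from psi-negative yeast with Sup35N fused to peptides of 20 random codons, induced with 100 μM copper sulfate for 24 hours and grown 7 days at 30°C on medium lacking adenine and uracil.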

RLDGSG gave an amyloid nucleation score of 0.587 ± 0.2.

As for QIVIWVRLYFNVFSRSRSRV, the amyloid nucleation score stood at 1.05 ± 0.36.

PGPAKVANCGWCTYTGGTSH yielded an amyloid nucleation score of 1.12 ± 0.45.

Regarding HFSFTPFRTWV, the amyloid nucleation score is -0.527 ± 0.27.

Take CAWFLTRWTVLSDLEGFY: the amyloid nucleation score is -1.35 ± 0.49.

Consider SRCGLLMVSPNAVPSGLAHR, for which the amyloid nucleation score amounted to 1.18 ± 0.31.

In the case of WSANVPQWLLTRPYFDSHHN, the amyloid nucleation score entry was “inactive”.

As for SIANYGFVLNNHIRFFRSSG, the amyloid nucleation score came to 2.32 ± 0.15.

As to VNKSSERNESIGRFRTCYRR, the amyloid nucleation score was 0.345 ± 0.8.

Substance FRIPRWFKTS registered an amyloid nucleation score of -0.284 ± 1.1.

Substance NSLVYCKKPSLPFHHGCK displayed an amyloid nucleation score of -0.032 ± 0.42.

Regarding CNSIDMTHKVTLKMSFIFIE, the amyloid nucleation score worked out at 6.703 ± 0.061.

On to EWVRWLVVLNLRSNAGNYDI, for which the amyloid nucleation score was -0.953 ± 0.54.

ILSNELFYLLYEW yielded an amyloid nucleation score of 8.798 ± 0.079.

In the case of RFDPNTAWNLTFSSSRCVAG, the amyloid nucleation score was found to be 0.91 ± 0.27.

SGFEDVHAVVRFLIGVQYGG: the amyloid nucleation score is -0.515 ± 1.1.

For the substance YFSYPC, the amyloid nucleation score is -1.82 ± 1.

With ALSYFTGCRF, the amyloid nucleation score was 0.766 ± 0.47.

With VRWTRFQALLYLK, the amyloid nucleation score entry is “inactive”.

NDNKRYIHYPFLMGFTVSYL displayed an amyloid nucleation score of -0.401 ± 0.6.

In the case of FAIGR, the amyloid nucleation score is -0.077 ± 0.36.

YDIVVNYLNHHQR showed an amyloid nucleation score of 4.88 ± 0.11.

Substance VNTSFATFSSVSLEGLLSMV registered an amyloid nucleation score of -0.595 ± 0.3.

On to STRTSADRSFIIMVWCNIDL, for which the amyloid nucleation score worked out at 3.62 ± 0.081.

As for WLPLYMFQDQYLLKAPWISS, the amyloid nucleation score result was “inactive”.

Substance RVGIH registered an amyloid nucleation score of 1.52 ± 0.22.

For IYCHPLRYVLFIVSYRVSSA, the amyloid nucleation score was found to be 0.259 ± 0.56.

In the case of ENCHFLGWANNGVLKCSFT, the amyloid nucleation score was -0.153 ± 0.63.

As for YMFAIHELNGEIIGPFTVNP, the amyloid nucleation score entry was “inactive”.

Substance WHNYSYSRGIRRCHQMKHKR had an amyloid nucleation score of 1.46 ± 0.15.

WTYPLC showed an amyloid nucleation score of -0.744 ± 1.1.

In turn, CRSATEPCVLSC registered an amyloid nucleation score of 0.56 ± 0.74.

For PIHNNKHGCFSSERSSFHKM, the amyloid nucleation score is -1.6 ± 0.75.

SICVRKYVKFWVWAMNTLFR: the amyloid nucleation score was -0.174 ± 0.19.

For KEMAFVRGMTARPRYNVNSE, the amyloid nucleation score was determined as 1.22 ± 0.29.

Take MDGDFSINFMDPSTTCLLYE: the amyloid nucleation score entry was “inactive”.

As for DCLGVSFNDFQFLLVSAITR, the amyloid nucleation score result is “inactive”.

GVPIGKKYRTSVCENMEGSW gave an amyloid nucleation score of -0.627 ± 0.31.

Turning to FFLLAGVLDWAYGWYYIVWK, the amyloid nucleation score came to 0.147 ± 1.1.

In turn, IMIILLVSVTKSNFTPQSMC showed an amyloid nucleation score of 2.26 ± 0.23.

In turn, THSRRLRLNAKMCLHFLWYR came in with an amyloid nucleation score of -0.115 ± 0.2.

In turn, ELTTTTTYVRKVFCLYFS registered an amyloid nucleation score of 8.422 ± 0.047.

HYLAFVCIIFSLLRLITQPM: the amyloid nucleation score was 2.53 ± 0.18.

In the case of SFRDLDAAVEEV, the amyloid nucleation score was -0.225 ± 0.48.

For FLYQEPSSCVTTAKISGLMA, the amyloid nucleation score entry is “inactive”.

Take VDTELKVNSYRPGWTEHSRT: the amyloid nucleation score came to 0.738 ± 0.21.

The substance FYKHMLVTATFSLMYITQDD had an amyloid nucleation score of -0.404 ± 0.48.

As to GYRFEAPWYNGLTVYGRIFC, the amyloid nucleation score was -1.1 ± 0.55.

Substance FSVSSLVAVMNNTHLVVSGG had an amyloid nucleation score of 2.34 ± 0.081.

Turning to LRLFSFIVMGHNGVKHLVLC, the amyloid nucleation score was found to be 0.011 ± 0.8.

As to CFVSNRDYDF, the amyloid nucleation score came out at 0.773 ± 0.42.

MTNMT: the amyloid nucleation score was 1.18 ± 0.61.

Consider ARTSLCESTWPTNVRIGPKS, for which the amyloid nucleation score was 0.498 ± 0.64.

Take SVSGIGWFGGEQHAWS: the amyloid nucleation score is -0.531 ± 0.79.

Regarding IRWNDSYKKECHIFFWRNRE, the amyloid nucleation score entry was “inactive”.

On to FKNAWFLATFNPTT, for which the amyloid nucleation score is -0.104 ± 0.23.

As for SHTPLTG, the amyloid nucleation score was -0.939 ± 1.

On to MSQFGHVCSRAYFLRDDQAN, for which the amyloid nucleation score entry was “inactive”.

As for RMLLKLTHFALSVKGMQSRY, the amyloid nucleation score was 0.417 ± 0.38.

The substance QLPSR gave an amyloid nucleation score of -0.243 ± 0.31.

As for LWVSVLFKMHAYWLGLEPNS, the amyloid nucleation score was 2 ± 0.15.

The substance YLVGRYETTVSTKMNKMRCW displayed an amyloid nucleation score of -0.175 ± 0.53.

As for WSHGHIFIRD, the amyloid nucleation score entry was “inactive”.

For the substance YVIFHSEEMN, the amyloid nucleation score result was “inactive”.

For the substance KTLVKESCCNLNSRSDLWGL, the amyloid nucleation score was -0.754 ± 0.76.

Turning to FGDYPNSLKWLQE, the amyloid nucleation score was -0.558 ± 0.63.

For PGNCRSFCRS, the amyloid nucleation score came out at 0.695 ± 0.47.

NKCEIKLRKWQSSP registered an amyloid nucleation score of -0.337 ± 0.34.

IRNLLCVSYGCTGYMMVGHG showed an amyloid nucleation score of 4.68 ± 0.063.

The substance QHSLAMSSHKLSTTVEESWP registered an amyloid nucleation score of 0.818 ± 0.45.

Take LAGLYGNFCISRCSVANQMV: the amyloid nucleation score was determined as 2.08 ± 0.095.

Turning to ILYGCLLPCLHLRGHPLVLK, the amyloid nucleation score is 0.42 ± 0.33.

With PFLQLCREAIFCLSHDGMLK, the amyloid nucleation score is -0.575 ± 0.28.

For VSMRMVHGDYKWGRGCLIWI, the amyloid nucleation score was -0.196 ± 0.45.

As for MGRDLLASDSTCVGRVQGKL, the amyloid nucleation score amounted to 0.965 ± 0.57.

For the substance CSAATSGYYMSQDRLSDTTT, the amyloid nucleation score is -0.184 ± 1.1.

As for TCRQSEATLLVLEYVRESCS, the amyloid nucleation score amounted to 0.809 ± 0.3.

ALPTWWVDKNLLSCLYSELS came in with an amyloid nucleation score of -0.104 ± 0.62.

KPAERLFKCRSTE came in with an amyloid nucleation score of 0.014 ± 0.49.

RQANFAQDPTSIVPVYMYLR registered an amyloid nucleation score of 2.35 ± 0.074.

Consider FIFKGNQWKVFVFL, for which the amyloid nucleation score was 2.83 ± 0.068.

The substance YCYARD showed an amyloid nucleation score of -0.172 ± 1.1.

In turn, MSGSDNLILYSSV came in with an amyloid nucleation score of -0.212 ± 0.45.

Substance RTTWPHLVGSRILFYTSHSM yielded an amyloid nucleation score of -0.392 ± 0.63.

In turn, HWLRSGWELNVRVLGPQATF came in with an amyloid nucleation score of 0.982 ± 0.34.

In turn, RRGIASILGHYRGTKMTGFD had an amyloid nucleation score of 0.135 ± 0.56.

RPRILYLLLFLYNHFLTSYK yielded an amyloid nucleation score of -1.08 ± 1.

Take NQTGSRYRVFGNFHVTACFV: the amyloid nucleation score was determined as 0.838 ± 0.18.

With VVYSSRLRSDA, the amyloid nucleation score was determined as 1.12 ± 0.4.

As for IMYWRGFWLFASLFTILWWF, the amyloid nucleation score result is “inactive”.

Turning to DWVFMRKCSPCWWYYIHLMS, the amyloid nucleation score is -0.468 ± 0.64.

SSQTKYQAFRVQATGVCAWM displayed an amyloid nucleation score of -0.123 ± 0.23.

SFNFEVEWRRASNLSFRWGR displayed an amyloid nucleation score of 0.039 ± 0.61.

Regarding ERGSYLRESRYIVFFNLLIL, the amyloid nucleation score result was “inactive”.

FTTFRR gave an amyloid nucleation score of -0.854 ± 0.55.

For AYSIFVFYTYVTTHLRHITR, the amyloid nucleation score result was “inactive”.

Take PLVLSFFRAIYSYYCNWKTC: the amyloid nucleation score was -0.649 ± 0.64.

Take ADLSRRLGMFVVLCLGGWAW: the amyloid nucleation score was -0.326 ± 0.63.

Take MVRDIEFTLKGRTMG: the amyloid nucleation score is -0.032 ± 1.1.

As for VPWSLGLCSIFRSFK, the amyloid nucleation score stood at 2.38 ± 0.16.

The substance MTWGSISNNLVTRTTPTYIC gave an amyloid nucleation score of 0.178 ± 0.56.

The substance LDIPNGNYVLMSYR returned an amyloid nucleation score of 0.32 ± 0.44.
